Laboratory results taken from the DeepSol protein solubility set.

Test: soluble on expression in E. coli; label from the status in PepcDB or PDB records

Soluble on expression in E. coli, not soluble:
MKLYVLIIAIILSIGTARTQNIDSLLMQREDTTQFIRSDSLVLQFLEYSNIPITDNNKVKLIKSGREKFEDLFEAIRGAKHHIHLEYFNFRNDSIANALFDLLGEKVKEGVKVRAMFDAFGNWSNNKPLKKRHLKAIREKGIEIVKFDPFKFPYINHAAHRDHRKIAVIDGKIGYTGGMNIADYYINGLPKIGTWRDMHIRIEGDAVNILQEIFLDIWNKTTKQNIVGEEYFPNHPERADSCNTVISIVDRTPKRNSRMLSHTYAMSIYAAQHDVRIVNPYFVPTSSIRKALKRALNRGTKVEIMISSKSDIPFTPDASLYAVQKLMKKGAMIYLYNGGFHHSKIMMVDDLFCTVGTANLNSRSLRYDYETNAFIFDKDITQQLNDVFEADMLHCTRLTPEMWKQKSAWKKFKCWFANLFTPFL
MKGKSILSEGKQIQLATELVRLGARLQVLEASTTLSRERLVKLYKEVKGASPPKGMLPYSEDWFTGWQPNMHSSLFINIYNYITRYTKVRDIDAIIKSYQLYLEHIEANRLQRILSFTRAWTLVRFVESKVLSVTSCVKCTGNFLVHSLDIQSNHVCGLCHVPSRAGKTKRVAQEARAAQEAGAGELCVI
MKGKKVLITSGGCLEKWDQVRGHTNMAKGTIGRIIAEELLAKGAHVIYLHGYFAEKPSDVHRGLELHPFEGIVDLQDKMKSIISHEKVDAVIMAAAGSDWIVEKICDQDGNVLNMNGKISSDIAPIIHFQKAPKVLKQIKEWDPETVLVGFKLESDLNEEELFERAKNRMKEARANVMIANSPHSLYSRGAVHYVIGQDGKGKLCNGKDETAKEIVKSLEVLCNRVTAF
TGQIGTKGTVLFCNPTETEQYLKCNVEMFVQGASSANDFKKGYTFDLYNSNGEELGVKFGDMISSSSFHLKAFYRDPTHTRDQAGYRFWKSLAETLDYPYCKINNSVYAQSTTRSDKAEFTFDAKYYPHGFPVEIYLNDTFHGLYTLRLKKTRENYTLNNADLNHIFLDNAEYRARLNTSFNYAQWEIKSPKMKGYSDQGPIPATFPTVQAAIDNLFNFTKGLSANYANHATVLNLPHWVLFYILAELTGHWDIDGNNYNIFTWDGVHWSILPYDMDLTLNWYRNSGATQTGFLINVDIWQTFRTVYSNEIKAMWTKFRNEKSLTTEKVVNTYRNVAKDIPREVYVADKAKWGLATDFTGNDYPNIEQIYRYITARIAYL
MNVLIIEDDPMVDFIHRNYLEKLNLFDRIISSDSMKAVQSILTDYAIDLILLDIHITDGNGIQFLEKWRTQHIPCEVIIISAANDGNIIRDGFHLGIIDYLIKPFTFERFQESIQQFVTHREHLANQQLEQAQIDQLKCLTSKKDTKNKQLLEKGLSESTFQWIMENIKVFDQPFTIQELASACHLSHVSVRKYIAYLEENKQLNSQQIFTKVGRPYRVYW
MSLAEVSDLAKAIRMEKNLVKEYRDTIGGYFRRFHPEHFVLSRDEFAVEGRKITIESVLAYAFLRADLDFVSAQARKVDPEDMKGSDDAPVNNDEVFGHPSTPSGHGIGGPARFKGGSTASVALISTPTPAPFWHPAAQSTLLCAHVGDSRILLCDTATGLAQPLTSDHHPSSPTESRRLRRYAPAGSMVSGDSFGEERIAGLANSRAFGDMKSKRIGVSAEPELTRVEMGPAQYSFLVLMTDGISGTLSDQEIVDVVKEARTPEDGARNIVKYATEVSNDGDNATCQVVRLGGWERRSEGEGHHHHHH
MGSDKIHHHHHHMTKDMQTFTLVPQGSLEGYIRAANAYPMLTAEEERALAERLHYQGDLEAAKHLILSHLRFVIHVARNYSGYGLPQADLIQEGNIGLMKAVRRFNPEVGVRLVSFAVHWIKAEIHEYVLRNWRIVKVATTKAQRKLFFNLRKAKTRLGWFNQDEVELVARELGVTTKDVREMESRMAAQDMTFDPTPEEDSHDGKAMSPMLYLQDKSSDFADGIEEDNWDTHAADKLTYALEGLDERSQHIIRARWLDDDNKSTLQELADQYGVSAERVRQLEKNAMKKLRAAIEA
MGSDKIHHHHHHMLSGENKMLDIDKSTVDFLVTENMVQEVEKVLSHDVPLVHAIVEEMVKRDIDRIYFVACGSPLNAAQTAKHLADRFSDLQVYAISGWEFCDNTPYRLDDRCAVIGVSDYGKTEEVIKALELGRACGALTAAFTKRADSPITSAAEFSIDYQADCIWEIHLLLCYSVVLEMITRLAPNAEIGKIKNDLKQLPNALGHLVRTWEEKGRQLGELASQWPMIYTVAAGPLRPLGYKEGIVTLMEFTWTHGCVIESGEFRHGPLEIVEPGVPFLFLLGNDESRHTTERAINFVKQRTDNVIVIDYAEISQGLHPWLAPFLMFVPMEWLCYYLSIYKDHNPDERRYYGGLVEY
MIISDVLYGEFEVDQVVEELISSKSMQRLKGIHQNGASYLMNEKWNVTRFDHSVGVMLLVKKLGGSVKEQIASLLHDVSHTAFSHVIDYVFDNEDESYHEEIFSSVVKNSEIPAILAKHGYNYEDILLDDSKWTLLERSAPELCADRVDYTLRDMYTYGYISLEEVHRFLEDIIAVEGKMVVQSVEMAEWFTETYYKEVIDFFMKPMNIYGNDMLAKTLKLSLHKKVIHADDFLLEDEELISKLQQCNDPEVEALLSKVHPNVKVKEDRNDYDLHQKNKVRLIDPPLLREGKIVQSSVVSENIRQISDIAYEKAVRGMYVKVISN

Soluble on expression in E. coli, soluble:
MANFESSVKVIPYSQERVYAKLSDLSNLESVKGRLPEDKIQDLSFDSDTLSFSVSPIGQLTLQIVEREPCKCIKLATTNSPLPFNMWIQLVSTAEEECKLKVTISMDINPFMKAMVQKPLQDGLEKMVEMLSMINYLEHHHHHH
MEPWKQCAQWLIHCKVLPTNHRVTWDSAQVFDLAQTLRDGVLLCQLLNNLRAHSINLKEINLRPQMSQFLCLKNIRTFLTACCETFGMRKSELFEAFDLFDVRDFGKVIETLSRLSRTPIALATGIRPFPTEESINDEDIYKGLPDLIDETLVEDEEDLYDCVYGEDEGGEVYEDLMKAEEAHQPKCPENDIRSCCLAEIKQTEEKYTETLESIEKYFMAPLKRFLTAAEFDSVFINIPELVKLHRNLMQEIHDSIVNKNDQNLYQVFINYKERLVIYGQYCSGVESAISSLDYISKSKEDVKLKLEECSKRANNGKFTLRDLLVVPMQRVLKYHLLLQELVKHTTDPTEKANLKLALDAMKDLAQYVNEVKRDNETLREIKQFQLSIENLNQPVLLFGRPQGDGEIRITTLDKHTKQERHIFLFDLAVIVCKRKGDNYEMKEIIDLQQYKIANNPTTDKENKKWSYGFYLIHTQGQNGLEFYCKTKDLKKKWLEQFEMALSNIRPDYADSNFHDFKMHTFTRVTSCKVCQMLLRGTFYQGYLCFKCGARAHKECLGRVDNCGRVNSGEQGTLKLPEKRTNGLRRTPKQVDPGLPKMQVIRNYSGTPPPALHEGPPLQLQAGDTVELLKGDAHSLFWQGRNLASGEVGFFPSDAVKPCPCVPKPVDYSCQPWYAGAMERLQAETELINRVNSTYLVRHRTKESGEYAISIKYNNEAKHIKILTRDGFFHIAENRKFKSLMELVEYYKHHSLKEGFRTLDTTLQFPYKEPEHSAGQRGNRAGNSLLSPKVLGIAIARYDFCARDMRELSLLKGDVVKIYTKMSANGWWRGEVNGRVGWFPSTYVEEDE
MKLEIFSWWAGDEGPALEALIRLYKQKYPGVEVINATVTGGAGVNARAVLKTRMLGGDPPDTFQVHAGMELIGTWVVANRMEDLSALFRQEGWLQAFPKGLIDLISYKGGIWSVPVNIHRSNVMWYLPAKLKGWGVNPPRTWDKFLATCQTLKQKGLEAPLALGENWTQQHLWESVALAVLGPDDWNNLWNGKLKFTDPKAVRAWEVFGRVLDCANKDAAGLSWQQAVDRVVQGKAAFNIMGDWAAGYMTTTLKLKPGTDFAWAPSPGTQGVFMMLSDSFGLPKGAKNRQNAINWLRLVGSKEGQDTSNPLKGSIAARLDSDPSKYNAYGQSAMRDWRSNRIVGSLVHGAVAPESFMSQFGTVMEIFLQTRNPQAAANAAQAIADQVGLGRLGQHHHHHH
MSTQGEIRVGPSHQAKLPDLQPFPSPDGDTVTQHEELVWMPGVNDCDLLMYLRAARSMAAFAGMCDGGSTEDGCVAASRDDTTLNALNTLHESGYDAGKALQRLVKKPVPKLIEKCWTEDEVKRFVKGLRQYGKNFFRIRKELLPNKETGELITFYYYWKKTPEAALEHHHHHH
MLDIVLYEPEIPQNTGNIIRLCANTGFRLHLIEPLGFTWDDKRLRRSGLDYHEFAEIKRHKTFEAFLESEKPKRLFALTTKGCPAHSQVKFKLGDYLMFGPETRGIPMSILNEMPMEQKIRIPMTANSRSMNLSNSVAVTVYEAWRQLGYKGAVNLPEVKLEHHHHHH
